For this assay, the target named is mouse uPA (Mus musculus, UniProt P06869). As to the kind of experiment: ELISA. On the technique in general: In an ELISA, binding on a coated surface is turned into a signal by an enzyme label.
Chain of mouse uPA (P06869 21-433): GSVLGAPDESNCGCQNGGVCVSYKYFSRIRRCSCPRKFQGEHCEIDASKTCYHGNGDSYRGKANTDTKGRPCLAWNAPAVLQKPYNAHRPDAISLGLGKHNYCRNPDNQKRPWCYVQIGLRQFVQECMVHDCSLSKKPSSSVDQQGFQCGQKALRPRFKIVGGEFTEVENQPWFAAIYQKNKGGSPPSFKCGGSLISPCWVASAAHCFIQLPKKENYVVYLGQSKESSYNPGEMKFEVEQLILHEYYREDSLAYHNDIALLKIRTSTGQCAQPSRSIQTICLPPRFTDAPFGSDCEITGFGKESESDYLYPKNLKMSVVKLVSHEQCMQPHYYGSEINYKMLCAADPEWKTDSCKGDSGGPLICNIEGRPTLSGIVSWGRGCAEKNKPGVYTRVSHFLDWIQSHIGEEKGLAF

B1: U33 Fab (Fab, V domains shown)
VH: EVQLVQSGGGLVKPGRSLRLSCTASGFTFGDYAMSWVRQAPGKGLEWVGFIRSKAYGGTTEYAAVKGRFTISRDDSKSIAYLQMNSLKTEDTAVYYCIRGANWNWGQGTLVTVSS
VL: EIVLTQSPLSLPVTPGEPASISCRSSQTLMNRNGNNFLDWYLQKPGQSPQLLIYLGSNRAPGVPDRFSGSGSGTDFTLKISRVEAEDVGVYYCMQRIEFPYTFGQGTKLEIK
As for B1, the binding result is reported as “no binding (tested: 1 μM)”.
